Results from patent US20220267414A1.

Columns and labels:
[1] = molecular target: canine parvovirus CPV-2b (canine parvovirus CPV-2b); experiment: cell-based or functional assay
[2] = molecular target: recombinant canine parvovirus CPV2b capsid (Advanced ImmunoChemical Inc Cat #8-CPV) (canine parvovirus CPV2b); experiment: BLI (Octet), biotinylated antibody on streptavidin tips, VLP at 40 µg/mL as analyte, 1:1 fit

Row | Molecule | CPV-2b HI (hemagglutination inhibition) [1] | Kd [2] [nM]
1 | irrelevant canine IgG (antibody) | < 20 | 
2 | Chimeric Canine Mab B v2 (antibody, V domains shown) VH: QVQLKESGPGLVQPSETLSLTCTVSGFSLTSYGVSWVRQPPGKGLEWMGTMWNDGDTDYNSALRSKLSISRDTSKSQVFLKMNSLQTEDTAIYYCARSQLPGYNLRGWFVYWGQGTLVIVSA VL: DIQMTQSPPVLSASVGDRVTLSCKASHNINKNLEWYQQKLGEAPKLLIYYANNLQTGIPSRFSGSGSGTDYTLTISSLQPEDVATYYCYQYNSGHTFGAGTKLEIKR |  | 0.00938
3 | Chimeric Canine Mab A v2 (antibody) heavy: QVQLKESGPGLVAPSQTLSLTCTVSGFSLSSYHVHWVRQPPGKGLEWLGVMWNDGDTSYNLALNSRLSISRDTSKSQVFFKMSSLQTEDTATYYCARPELPGLTYGVWFPYWGQGTLVTVSAASTTAPSVFPLAPSCGSTSGSTVALACLVSGYFPEPVTVSWNSGSLTSGVHTFPSVLQSSGLYSLSSMVTVPSSRWPSETFTCNVAHPASKTKVDKPVPKRENGRVPRPPDCPKCPAPEMLGGPSVFIFPPKPKDTLLIARTPEVTCVVVDLDPEDPEVQISWFVDGKQMQTAKTQPREEQFNGTYRVVSVLPIGHQDWLKGKQFTCKVNNKALPSPIERTISKARGQAHQPSVYVLPPSREELSKNTVSLTCLIKDFFPPDIDVEWQSNGQQEPESKYRTTPPQLDEDGSYFLYSKLSVDKSRWQRGDTFICAVMHEALHNHYTQESLSHSPGK light: DIVMTQTPASMSISVGDRVTMNCKASQNVDSNVDWYQQKTGQSPNLLIYKASNRNTGVPDRFTGSGSGTDFTFTISNMQAEDLAVYYCMQSTSYPLTFGSGTKLEIKRNDAQPAVYLFQPSPDQLHTGSASVVCLLNSFYPKDINVKWKVDGVIQDTGIQESVTEQDKDSTYSLSSTLTMSSTEYLSHELYSCEITHKSLPSTLIKSFQRSECQRVD |  | 0.0978
